No end group written: not given here.

The nature of this data set: Distribution of tritium-labelled pentapeptide after intranasal administration. In kind it is in vivo. Particulars: rats, tritium label. The method, then: The study to determine how the medication of the invention is distributed through the body and reaches the brain was conducted on rats. Specially prepared rats were intranasally administered the pharmaceutical composition containing the pentapeptide of the invention radioactively-labelled with tritium. The animals were then euthanized at certain time intervals to be able to assess the biodistribution of the peptide in the brain and its transportation path.

“pentapeptide of the invention radioactively-labelled with tritium: pentapeptide Thr-Lys-Pro-Arg-Pro (SEQ ID NO: 5) labelled with tritium, given intranasally in a pharmaceutical composition (TKPRP; also: tritium label, position not given here)”: the “biodistribution: delivery to the brain” value is listed as “a significant part of the medication reached the brain undegraded”; the “biodistribution: site of detection” value was “detected in the olfactory bulbs and other parts of the brain”.

Values taken from US20190269750A1, “PHARMACEUTICAL COMPOSITION AND METHOD OF TREATING FEMALE SEXUAL DYSFUNCTIONS” ("IVIX" Ltd., priority 2016, published 2019).
